{"source": "paper PMC6230944", "about": "“Mitochondrial alternative oxidase‐dependent autophagy involved in ethylene‐mediated drought tolerance in Solanum lycopersicum”"}
{"molecular_target": "ERF5 (Solanum lycopersicum, UniProt Q6Q4I4 1-244)", "sequence (Q6Q4I4 entry or part of it)": "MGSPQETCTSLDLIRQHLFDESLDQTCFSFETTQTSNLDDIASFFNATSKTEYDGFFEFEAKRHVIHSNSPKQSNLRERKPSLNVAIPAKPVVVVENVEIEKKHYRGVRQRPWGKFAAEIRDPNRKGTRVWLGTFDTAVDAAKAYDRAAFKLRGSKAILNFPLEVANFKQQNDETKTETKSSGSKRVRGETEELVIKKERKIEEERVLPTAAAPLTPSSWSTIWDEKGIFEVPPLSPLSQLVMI", "assay": "EMSA; EMSA Kit with SYBR Green & SYPRO Ruby stains (Invitrogen), per kit instructions; buffer, salt, pH, temperature not stated", "settings": "protein: recombinant; tags: pET-32a vector fusion (His control used); label: none (SYBR Green stain)"}
{"binder": "ATG8d-competitor (mutated DRE) (dsDNA) DNA 1: TCACGTTACATATGACAAACATAAAGATAA DNA 2: TTATCTTTATGTTTGTCATATGTAACGTGA", "binding result": "no binding"}
{"binder": "ATG18h promoter probe (WT DRE) (dsDNA) DNA 1: GCGGTGAAAAGACCGACGGACGAAACGTGA DNA 2: TCACGTTTCGTCCGTCGGTCTTTTCACCGC", "binding result": "binds"}
{"binder": "ATG18h-competitor (mutated DRE) (dsDNA) DNA 1: GCGGTGAAAAGATTGACGGACGAAACGTGA DNA 2: TCACGTTTCGTCCGTCAATCTTTTCACCGC", "binding result": "no binding"}
{"binder": "ATG8d promoter probe (WT DRE) (dsDNA) DNA 1: TCACGTTACATATGACCGACATAAAGATAA DNA 2: TTATCTTTATGTCGGTCATATGTAACGTGA", "binding result": "binds"}
